# B1: Twister Ribozyme (parent)
# chain: AACACUGCCAAUGCCGGUCCCAAGCCCGGAUAAAAGUGGAGGGGGCGG
# Variants of: B1
# Experiment: self-cleavage, relative activity (ratio to wild type); higher = more cleavage; co-transcriptional
row,Variant,self-cleavage
1,AACACUGCCAAUGCCGGUCCCAAGCCCGGAUAAACGUGGAGGGGCCGG,0.472
2,AACACUGCCAAUGCCGGUCCCAAGCCCGGAUAAACGUGGAGGGGGCCG,0.574
3,AACACUGCCAAUGCCGGUCCCAAGCCCGGAUAAACGAGGAGGGGGCGG,0.702
4,AACACUGCCAAUGCCGGUCCCAAGCCCGGAUAAACGCGGAGGGGGCGG,0.592
5,AACACUGCCAAUGCCGGUCCCAAGCCCGGAUAAAGGUGGAGGGGGCGG,0.864
6,AACACUGCCAAUGCCGGUCCCAAGCCCGGAUAAAGGUGGCGGGGGCGG,0.142
7,AACACUGCCAAUGCCGGUCCCAAGCCCGGAUAAAGGUGGAGGGGGGGG,0.868
8,AACACUGCCAAUGCCGGUCCCAAGCCCGGAUAAAGGUGGAGGGGGUGG,0.854
9,AACACUGCCAAUGCCGGUCCCAAGCCCGGAUAAAGGUCGAGGGGGCGG,0.632
10,AACACUGCCAAUGCCGGUCCCAAGCCCGGAUAAAGGUGCAGGGGGCGG,0.178
11,AACACUGCCAAUGCCGGUCCCAAGCCCGGAUAAAGGUGGACGGGGCGG,0.143
12,AACACUGCCAAUGCCGGUCCCAAGCCCGGAUAAAGGUGGAUGGGGCGG,0.283
13,AACACUGCCAAUGCCGGUCCCAAGCCCGGAUAAAGGUGGAGGAGGCGG,0.152
14,AACACUGCCAAUGCCGGUCCCAAGCCCGGAUAAAGGUGGAGGGAGCGG,0.808
15,AACACUGCCAAUGCCGGUCCCAAGCCCGGAUAAAGGUGGAGGGCGCGG,0.821
16,AACACUGCCAAUGCCGGUCCCAAGCCCGGAUAAAGGUGGAGGGGACGG,0.889
17,AACACUGCCAAUGCCGGUCCCAAGCCCGGAUAAAGGUGGAGGGGUCGG,0.659
18,AACACUGCCAAUGCCGGUCCCAAGCCCGGAUAAAGGUGGAGGGGGCAG,0.706
19,AACACUGCCAAUGCCGGUCCCAAGCCCGGAUAAAGGAGGAGGGGGCGG,0.574
20,AACACUGCCAAUGCCGGUCCCAAGCCCGGAUAAAUGUGGAGGGGGCGG,0.969
21,AACACUGCCAAUGCCGGUCCCAAGCCCGGAUAAAUGUGGGGGGGGCGG,0.133
22,AACACUGCCAAUGCCGGUCCCAAGCCCGGAUAAAUGUGGUGGGGGCGG,0.253
23,AACACUGCCAAUGCCGGUCCCAAGCCCGGAUAAAUGUGGAGGGGGAGG,1.04
24,AACACUGCCAAUGCCGGUCCCAAGCCCGGAUAAAUGUGGAGGGGGGGG,0.927
25,AACACUGCCAAUGCCGGUCCCAAGCCCGGAUAAAUGUGGAGGGGGUGG,0.894
26,AACACUGCCAAUGCCGGUCCCAAGCCCGGAUAAAUUUGGAGGGGGCGG,0.472
27,AACACUGCCAAUGCCGGUCCCAAGCCCGGAUAAAUGUAGAGGGGGCGG,0.925

row,Variant,self-cleavage
1,AACACUGCCAAUGCCGGUCCCAAGCCCGGAUAAAUGUUGAGGGGGCGG,0.942
2,AACACUGCCAAUGCCGGUCCCAAGCCCGGAUAAAUGUGCAGGGGGCGG,0.104
3,AACACUGCCAAUGCCGGUCCCAAGCCCGGAUAAAUGUGGACGGGGCGG,0.206
4,AACACUGCCAAUGCCGGUCCCAAGCCCGGAUAAAUGUGGAUGGGGCGG,0.693
5,AACACUGCCAAUGCCGGUCCCAAGCCCGGAUAAAUGUGGAGAGGGCGG,0.376
6,AACACUGCCAAUGCCGGUCCCAAGCCCGGAUAAAUGUGGAGCGGGCGG,0.539
7,AACACUGCCAAUGCCGGUCCCAAGCCCGGAUAAAUGUGGAGGAGGCGG,0.25
8,AACACUGCCAAUGCCGGUCCCAAGCCCGGAUAAAUGUGGAGGCGGCGG,0.208
9,AACACUGCCAAUGCCGGUCCCAAGCCCGGAUAAAUGUGGAGGUGGCGG,0.352
10,AACACUGCCAAUGCCGGUCCCAAGCCCGGAUAAAUGUGGAGGGAGCGG,0.843
11,AACACUGCCAAUGCCGGUCCCAAGCCCGGAUAAAUGUGGAGGGGCCGG,0.723
12,AACACUGCCAAUGCCGGUCCCAAGCCCGGAUAAAUGUGGAGGGGUCGG,0.812
13,AACACUGCCAAUGCCGGUCCCAAGCCCGGAUAAAUGUGGAGGGGGCCG,0.694
14,AACACUGCCAAUGCCGGUCCCAAGCCCGGAUAAAUGUGGAGGGGGCGC,1.07
15,AACACUGCCAAUGCCGGUCCCAAGCCCGGAUAAAUGUGGAGGGGGCGU,1.17
16,AACACUGCCAAUGCCGGUCCCAAGCCCGGAUAAAUGCGGAGGGGGCGG,0.633
17,AACACUGCCAAUGCCGGUCCCAAGCCCGGAUAAAUGGGGAGGGGGCGG,0.69
18,AACACUGCCAAUGCCGGUCCCAAGCCCGGAUAAAAAUGGGGGGGGCGG,0.144
19,AACACUGCCAAUGCCGGUCCCAAGCCCGGAUAAAAAUGGUGGGGGCGG,0.124
20,AACACUGCCAAUGCCGGUCCCAAGCCCGGAUAAAAAUGGAGGGGGGGG,0.7
21,AACACUGCCAAUGCCGGUCCCAAGCCCGGAUAAAAAUGGAGGGGGUGG,0.766
22,AACACUGCCAAUGCCGGUCCCAAGCCCGGAUAAAAAUAGAGGGGGCGG,0.359
23,AACACUGCCAAUGCCGGUCCCAAGCCCGGAUAAAAAUUGAGGGGGCGG,0.193
24,AACACUGCCAAUGCCGGUCCCAAGCCCGGAUAAAAAUGUAGGGGGCGG,0.12
25,AACACUGCCAAUGCCGGUCCCAAGCCCGGAUAAAAAUGGAAGGGGCGG,0.13
26,AACACUGCCAAUGCCGGUCCCAAGCCCGGAUAAAAAUGGACGGGGCGG,0.133
27,AACACUGCCAAUGCCGGUCCCAAGCCCGGAUAAAAAUGGAGCGGGCGG,0.168
